From US20150160214A1, “Quantitation of Cellular Adhesion Dynamics Across Immobilized Receptors Under Rheological Shear Flow” (Mayo Foundation for Medical Education and Research, priority 2013, published 2015)

Columns and labels:
[1] = Conformational and thermodynamic classification of A1 domain variants (urea and thermal denaturation, CD, FL, ANS); type: physicochemical
Procedure: Circular dichroism measurements were performed on a Model No. 420C circular-dichroism spectrometer (Aviv Biomedical, Inc., Lakewood Township, N.J.). All fluorescence (FL) measurements were performed on a Fluorolog3 spectrofluorometer (HORIBA Jobin-Yvon, Edison, N.J.) equipped with a Model No. LF1-3751 temperature controller (Wavelength Electronics Inc., Bozeman, Mont.). Near- and far-ultraviolet (UV) circular dichroism (CD), intrinsic protein FL, and ANS (8-anilino naphthalene sulfonic acid) […] spectra were determined as described in Tischer et al. (19). Urea denaturation (monitored by far-UV CD) and thermal denaturation (monitored by far-UV CD, intrinsic protein FL, and ANS FL) were performed and analyzed as previously described (19,20). Acrylamide quenching of intrinsic tryptophan fluorescence was performed and analyzed as described in Tischer et al. (19). All spectra were collected at 20° C.
The effects of mutations on the thermodynamic stability of A1 (18) was determined and a framework that incorporated partial unfolding as a means for enhancing the binding affinity of A1 for GPIba was developed (17). Initially, urea-temperature phase diagram method were used for assessing the reversible thermodynamics of unfolding at various temperatures (18,21), and more recently thermal denaturations were used to assess kinetic irreversibility (20,22). The inventor employed these methods using a variety of spectroscopic observables that assess the conformation of these A1 domain variants as a function of temperature and urea.
The observables included the following: (1) Far-UV CD to assess secondary structure content; (2) Near-UV CD to assess tertiary structure content; (3) Intrinsic protein FL to assess solvent exposure of tyrosine and tryptophan residues; (4) Acrylamide quenching of tryptophan FL to assess local solvent exposure of the single tryptophan residue; and (5) Binding of the molten globule indicator-dye, ANS, to assess exposure of hydrophobic surface area.
In total, these studies have provided metrics that are able to classify the conformation of A1 into three types, based on biophysical spectroscopy, as follows:
The type 2B mutations R1306Q and I1309V and the type 2M mutation G1324S have previously been characterized in this conformational class (18). In addition, R1308L and I1372S also belong to this class.
The type 2M mutation A1437T and the type 2B mutation R1341Q belong to this class.
The type 2M mutations F1369I, E1359K, I1425F, S1285F, and R1374H, and the type 2B mutations H1268D, P1337L, V1316M, and V1314D, belong to this class.

[2] = tested on: platelet GP1bα; experiment: Platelet pause times and translocation velocities on immobilized A1 under shear flow, parallel-plate flow chamber (Example 1); type: cell-based, human; conditions: as a function of shear rate
Description: To understand the effect of the N-terminal peptide on the function of the A1-domain of vWF, the protein was expressed with (A1-1238) and without the N-terminal peptide (A1-1261). The inventor used a flow chamber to measure the dynamics of platelet interactions with A1-1238 and A1-1261. Each domain variant was immobilized on glass slides with a modified Cu^2+ chelating chemistry that enabled surface capture via the N-terminally fused histidine tag. This method ensured reproducible capture of the proteins eliminating possible structural issues associated with nonspecific immobilization on plastic or glass. The slides were completely inert to platelets. Next, 1 mL of citrated whole blood followed by Tris buffered saline was perfused at low shear to enable platelets to attach to the surface immobilized domains. After red cells were perfused away with buffer, the translocation of the remaining attached platelets over the surfaces was recorded at each shear rate and the velocities and pause times calculated from the coordinate data of each platelet on the surface as described in the methods. […] In addition, the translocation velocities were increased for A1-1238 relative to A1-1261. To determine if this N-terminal sequence could inhibit the catch bond when free in solution, the inventor incubated surface immobilized A1-1261 with excess free peptide and added the free peptide to 1 mL of whole blood and to our perfusion buffer and performed the assay.
Determination of platelet pause times. Determination of platelet pause times A Glycotech† rectangular parallel-plate flow chamber was mounted to slides with a chelated Cu 21 surface obtained from Microsurfaces Inc. # to which the A1-1261 and A1-1238 domains in TBS were immobilized by the 63His-Tag. Citrated whole blood (1 mL) obtained from informed consent of healthy donors with approval from the Baylor College of Medicine institutional review board followed by buffer was perfused through the chamber at 300s21 for A1-1261 and 700s21 for A1-1238 shear rate to attach platelets to the surface immobilized proteins using a syringe driven variable flow rate pump. The shear was increased incrementally and 1 min movies were recorded at 25 frames/s in phase contrast with 232 pixel binning on a Zeiss Axiocam MRm camera attached to a Zeiss Axio Observer D1 inverted microscope. Tracking analysis was performed using Mediacybernetics ImagePro Premier§. The resulting X-Y coordinate data for each platelet track was differentiated into instantaneous velocities using a Savitzky-Golay algorithm (Savitzky:1964) with a five data point window size and a second-order polynomial implemented into a Mathamatica notebook. These platelet tracks were retained for statistical analysis if the platelet was present for at least 1 s and travelled a total distance greater than 1 lm. Distance travelled in pixels was converted to lm given the camera pixel size=6.45 μm^2, pixel binning, and microscope magnification=400×. Pause times were determined by the amount of time (seconds) a platelets velocity was =0±0.13 μm/s, within the noise. Pause times for all platelet tracks are reported as the mean of the medians. Examples of this analysis for individual platelets and for multiple platelets are provided in the Supporting Information.
Frame by frame platelet trajectory analysis. Tracking coordinates of individual platelets in units of pixels were exported from ImagePro Premier as a text file and imported into a Mathematica notebook that calculates a Savitzky-Golay first derivative of the total distance traveled over time (Savitzky:1964). The distance was calculated from the X and Y coordinates with the following equation.
Pause times were determined from the length of time the platelet velocity remained within 0±4 pixel/sec=0.129 μm/sec as illustrated in FIG. 8B. Median pause times were calculated from velocity time profiles for all platelet tracks, stored in a list and translated to histograms for multiple platelets. […]

For “A1-1238: Recombinant human vWF A1 domain, amino acids Q1238-P1471, with N-terminal 6×His-Tag, disulfide intact”, the “A1 domain Conformation” value [1] was “N (N = “Native” (native structure with varying thermodynamic stability))” and the “Platelet translocation velocities on immobilized domain (comparison)” value [2] was “increased”.
